Substitutions are numbered along the chain they refer to.
T1: human GIP receptor (human) (UniProt P48546)
T1 sequence (looked up): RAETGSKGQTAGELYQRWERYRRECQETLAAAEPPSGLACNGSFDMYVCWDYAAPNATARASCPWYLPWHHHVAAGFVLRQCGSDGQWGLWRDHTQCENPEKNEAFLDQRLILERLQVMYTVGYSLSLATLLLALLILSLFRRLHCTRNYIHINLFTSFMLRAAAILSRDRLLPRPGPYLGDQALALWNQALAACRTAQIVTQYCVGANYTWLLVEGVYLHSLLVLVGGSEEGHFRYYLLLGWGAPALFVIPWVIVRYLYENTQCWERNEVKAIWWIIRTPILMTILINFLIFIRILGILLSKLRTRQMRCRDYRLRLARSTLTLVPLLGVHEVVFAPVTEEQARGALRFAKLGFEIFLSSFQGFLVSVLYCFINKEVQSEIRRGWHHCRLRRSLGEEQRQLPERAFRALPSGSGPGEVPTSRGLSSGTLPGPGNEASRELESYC

B1: Example 650 (SEQ ID NO: 656) (peptide)
chain: YXQGTXTSDXSIXLDKKAQXXFIEYLAEGGPSSGEPPPEGSEE
modifications: synthetic construct; SITE 2: note = 2-Aminoisobutyric Acid; SITE 6: note = alpha-methyl-2-fluoro-L-phenylalanine; SITE 10: note = 3-(4-Pyridyl)-L-alanine; SITE 13: note = alpha-methyl-leucine; SITE 17: note = Lysine is chemically modified through conjugation of the epsilon-amino group of the Lysine
B2: Example 652 (SEQ ID NO: 658) (peptide)
chain: B1 chain with A27T
modifications: synthetic construct; SITE 2: note = 2-Aminoisobutyric Acid; SITE 6: note = alpha-methyl-2-fluoro-L-phenylalanine; SITE 10: note = 3-(4-Pyridyl)-L-alanine; SITE 13: note = alpha-methyl-leucine; SITE 17: note = Lysine is chemically modified through conjugation of the epsilon-amino group of the Lysine
B3: Example 651 (SEQ ID NO: 657) (peptide)
chain: B1 chain with A27S
modifications: synthetic construct; SITE 2: note = 2-Aminoisobutyric Acid; SITE 6: note = alpha-methyl-2-fluoro-L-phenylalanine; SITE 10: note = 3-(4-Pyridyl)-L-alanine; SITE 13: note = alpha-methyl-leucine; SITE 17: note = Lysine is chemically modified through conjugation of the epsilon-amino group of the Lysine
B4: Example 653 (SEQ ID NO: 659) (peptide)
chain: B1 chain with A27Q
modifications: synthetic construct; SITE 2: note = 2-Aminoisobutyric Acid; SITE 6: note = alpha-methyl-2-fluoro-L-phenylalanine; SITE 10: note = 3-(4-Pyridyl)-L-alanine; SITE 13: note = alpha-methyl-leucine; SITE 17: note = Lysine is chemically modified through conjugation of the epsilon-amino group of the Lysine
B5: Example 660 (SEQ ID NO: 666) (peptide)
chain: YXQGTXTSDXSILLDKKAQXAFIEYLEEGGPSSGAPPPEGTGE
modifications: synthetic construct; SITE 2: note = 2-Aminoisobutyric Acid; SITE 6: note = alpha-methyl-2-fluoro-L-phenylalanine; SITE 10: note = 3-(4-Pyridyl)-L-alanine; SITE 17: note = Lysine is chemically modified through conjugation of the epsilon-amino group of the Lysine side chain with (gamma-Glu)2-CO-(CH2)1
B6: Example 663 (SEQ ID NO: 669) (peptide)
chain: B5 chain with E27X, E39S
modifications: synthetic construct; SITE 2: note = 2-Aminoisobutyric Acid; SITE 6: note = alpha-methyl-2-fluoro-L-phenylalanine; SITE 10: note = 3-(4-Pyridyl)-L-alanine; SITE 17: note = Lysine is chemically modified through conjugation of the epsilon-amino group of the Lysine side chain with (2-[2-(2-Amino-ethoxy))
B7: Example 665 (SEQ ID NO: 671) (peptide)
chain: B5 chain with K16X, Y25X, E39S
modifications: synthetic construct; SITE 2: note = 2-Aminoisobutyric Acid; SITE 6: note = alpha-methyl-2-fluoro-L-phenylalanine; SITE 10: note = 3-(4-Pyridyl)-L-alanine; SITE 16: note = L-ornithine; SITE 17: note = Lysine is chemically modified through conjugation of the epsilon-amino group of the Lysine side chai
B8: Example 664 (SEQ ID NO: 670) (peptide)
chain: B5 chain with Y25X, E39S
modifications: synthetic construct; SITE 2: note = 2-Aminoisobutyric Acid; SITE 6: note = alpha-methyl-2-fluoro-L-phenylalanine; SITE 10: note = 3-(4-Pyridyl)-L-alanine; SITE 17: note = Lysine is chemically modified through conjugation of the epsilon-amino group of the Lysine side chain with (gamma-Glu)2-CO-(CH2)1
B9: Example 668 (SEQ ID NO: 674) (peptide)
chain: B5 chain with Y25X, E39S, T41G
modifications: synthetic construct; SITE 2: note = 2-Aminoisobutyric Acid; SITE 6: note = alpha-methyl-2-fluoro-L-phenylalanine; SITE 10: note = 3-(4-Pyridyl)-L-alanine; SITE 17: note = Lysine is chemically modified through conjugation of the epsilon-amino group of the Lysine side chain with (gamma-Glu)2-CO-(CH2)1
B10: Example 666 (SEQ ID NO: 672) (peptide)
chain: B5 chain with Y25X, E39S, T41S
modifications: synthetic construct; SITE 2: note = 2-Aminoisobutyric Acid; SITE 6: note = alpha-methyl-2-fluoro-L-phenylalanine; SITE 10: note = 3-(4-Pyridyl)-L-alanine; SITE 17: note = Lysine is chemically modified through conjugation of the epsilon-amino group of the Lysine side chain with (gamma-Glu)2-CO-(CH2)1
B11: Example 667 (SEQ ID NO: 673) (peptide)
chain: B5 chain with Y25X, E39S, T41E
modifications: synthetic construct; SITE 2: note = 2-Aminoisobutyric Acid; SITE 6: note = alpha-methyl-2-fluoro-L-phenylalanine; SITE 10: note = 3-(4-Pyridyl)-L-alanine; SITE 17: note = Lysine is chemically modified through conjugation of the epsilon-amino group of the Lysine side chain with (gamma-Glu)2-CO-(CH2)1
B12: Example 661 (SEQ ID NO: 667) (peptide)
chain: B5 chain with E27X, E39S
modifications: synthetic construct; SITE 2: note = 2-Aminoisobutyric Acid; SITE 6: note = alpha-methyl-2-fluoro-L-phenylalanine; SITE 10: note = 3-(4-Pyridyl)-L-alanine; SITE 17: note = Lysine is chemically modified through conjugation of the epsilon-amino group of the Lysine side chain with (gamma-Glu)2-CO-(CH2)1
B13: Example 662 (SEQ ID NO: 668) (peptide)
chain: B5 chain with E39S
modifications: synthetic construct; SITE 2: note = 2-Aminoisobutyric Acid; SITE 6: note = alpha-methyl-2-fluoro-L-phenylalanine; SITE 10: note = 3-(4-Pyridyl)-L-alanine; SITE 17: note = Lysine is chemically modified through conjugation of the epsilon-amino group of the Lysine side chain with (2-[2-(2-Amino-ethoxy))
B14: Example 454 (peptide)
chain: YXQGTXTSDXSILLDXIAQXAFIKYLEEGGPSSGAPPPS
modifications: synthetic construct; SITE 2: note = 2-Aminoisobutyric Acid; SITE 6: note = alpha-methyl-2-fluoro-L-phenylalanine; SITE 10: note = 3-(4-Pyridyl)-L-alanine; SITE 16: note = L-ornithine; SITE 20: note = 2-Aminoisobutyric Acid; SITE 24: note = Lysine is chemically modified through conjugation of the eps
B15: Example 455 (peptide)
chain: B14 chain with X10Y, L13X, X16K
modifications: synthetic construct; SITE 2: note = 2-Aminoisobutyric Acid; SITE 6: note = alpha-methyl-2-fluoro-L-phenylalanine; SITE 13: note = alpha-methyl-leucine; SITE 20: note = 2-Aminoisobutyric Acid; SITE 24: note = Lysine is chemically modified through conjugation of the epsilon-amino group of the Lysine s
B16: Example 496 (peptide)
chain: YXQGTFTSDFSXXLDKKAQXAFIEXLLEGGPSSGAPPPGGS
modifications: synthetic construct; SITE 2: note = 2-Aminoisobutyric Acid; SITE 12: note = L-ornithine; SITE 13: note = alpha-methyl-leucine; SITE 17: note = Lysine is chemically modified through conjugation of the epsilon-amino group of the Lysine side chain with (2-[2-(2-Amino-ethoxy)-ethoxy]-acetyl)-(gamma-Glu)
B17: Example 659 (SEQ ID NO: 665) (peptide)
chain: YXQGTXTSDXSILLDKKAQXAFIEYLEEGGPSSGAPPPEGTE
modifications: synthetic construct; SITE 2: note = 2-Aminoisobutyric Acid; SITE 6: note = alpha-methyl-2-fluoro-L-phenylalanine; SITE 10: note = 3-(4-Pyridyl)-L-alanine; SITE 17: note = Lysine is chemically modified through conjugation of the epsilon-amino group of the Lysine side chain with (gamma-Glu)2-CO-(CH2)1

Target: T1, human GIP receptor (human)
Test: cell-based or functional assay

Row | Binder | Relative cAMP EC50 | Relative cAMP EC50, nM (0.1% casein)
1 | B1 | 0.0814 nM | –
2 | B2 | 0.0342 nM | –
3 | B3 | 0.112 nM | –
4 | B4 | 0.0303 nM | –
5 | B5 | 0.0646 nM | –
6 | B6 | 0.0893 nM | –
7 | B7 | 0.0223 nM | –
8 | B8 | 0.0159 nM | –
9 | B9 | 0.0198 nM | –
10 | B10 | 0.0203 nM | –
11 | B11 | 0.0217 nM | –
12 | B12 | 0.0665 nM | –
13 | B13 | 0.0704 nM | –
14 | B14 | – | 0.0154 nM
15 | B15 | – | 0.0182 nM
16 | B16 | – | 0.387 nM
17 | B17 | 0.0673 nM | –

Target: hGLP-1R (Homo sapiens, UniProt P43220)
Sequence (P43220 24-463): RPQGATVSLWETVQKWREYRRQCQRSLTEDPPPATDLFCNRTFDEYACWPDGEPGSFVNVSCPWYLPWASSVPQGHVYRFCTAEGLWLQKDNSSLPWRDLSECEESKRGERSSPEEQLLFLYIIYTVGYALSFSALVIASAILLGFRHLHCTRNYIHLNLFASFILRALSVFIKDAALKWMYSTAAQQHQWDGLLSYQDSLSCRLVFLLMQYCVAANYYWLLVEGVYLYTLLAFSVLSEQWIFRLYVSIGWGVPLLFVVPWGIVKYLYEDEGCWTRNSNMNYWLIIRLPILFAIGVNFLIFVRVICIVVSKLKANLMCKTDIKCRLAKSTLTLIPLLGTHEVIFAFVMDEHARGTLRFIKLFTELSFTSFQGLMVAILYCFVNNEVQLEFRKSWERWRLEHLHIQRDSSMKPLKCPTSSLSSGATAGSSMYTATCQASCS
Test: cell-based or functional assay

Row | Binder | Relative cAMP EC50 | Relative cAMP EC50, nM (0.1% casein)
18 | B1 | 0.649 nM | –
19 | B2 | 0.426 nM | –
20 | B3 | 1.02 nM | –
21 | B4 | 0.426 nM | –
22 | B5 | 1.27 nM | –
23 | B6 | 1.29 nM | –
24 | B7 | 0.284 nM | –
25 | B8 | 0.356 nM | –
26 | B9 | 0.325 nM | –
27 | B10 | 0.337 nM | –
28 | B11 | 0.42 nM | –
29 | B12 | 1.13 nM | –
30 | B13 | 0.946 nM | –
31 | B14 | – | 0.821 nM
32 | B15 | – | 0.49 nM
33 | B16 | – | 9.69 nM
34 | B17 | 1.31 nM | –

Target: human glucagon receptor (human) (UniProt P47871)
Sequence (P47871 26-477): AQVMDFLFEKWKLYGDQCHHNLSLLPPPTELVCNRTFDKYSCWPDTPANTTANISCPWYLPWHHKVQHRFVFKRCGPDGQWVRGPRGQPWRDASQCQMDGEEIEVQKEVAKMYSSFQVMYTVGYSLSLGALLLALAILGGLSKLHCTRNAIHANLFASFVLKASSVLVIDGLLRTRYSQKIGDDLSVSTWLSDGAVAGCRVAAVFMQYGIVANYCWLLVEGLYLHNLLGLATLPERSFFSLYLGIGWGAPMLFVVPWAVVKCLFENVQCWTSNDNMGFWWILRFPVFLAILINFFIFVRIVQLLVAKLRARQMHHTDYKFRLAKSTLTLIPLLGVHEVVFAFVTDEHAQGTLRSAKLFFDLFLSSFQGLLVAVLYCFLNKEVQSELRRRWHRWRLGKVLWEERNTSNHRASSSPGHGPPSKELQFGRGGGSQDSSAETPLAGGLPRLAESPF
Test: cell-based or functional assay

Row | Binder | Relative cAMP EC50 | Relative cAMP EC50, nM (0.1% casein)
35 | B1 | 16.2 nM | –
36 | B2 | 15.3 nM | –
37 | B3 | 10.7 nM | –
38 | B4 | 7.29 nM | –
39 | B5 | 7.38 nM | –
40 | B6 | 1.95 nM | –
41 | B7 | 2.94 nM | –
42 | B8 | 2.12 nM | –
43 | B9 | 2.03 nM | –
44 | B10 | 2 nM | –
45 | B11 | 2.34 nM | –
46 | B12 | 1.78 nM | –
47 | B13 | 4.81 nM | –
48 | B14 | – | 9.11 nM
49 | B15 | – | 4.36 nM
50 | B16 | – | 8.25 nM
51 | B17 | 5.89 nM | –
